From the supplement of paper PMC11908140

B1: library; numbered along this chain (parent)
chain: MRKPRAAVGSGHRKQAASQEGRQKHAKNNSQAKPSACDGLARQPEEVVLQASVSSYHLFRDVAEVTAFRGSLLSWYDQEKRDLPWRRRAEDEMDLDRRAYAVWVSEVMLQQTQVATVINYYTGWMQKWPTLQDLASASLEEVNQLWAGLGYYSRGRRLQEGARKVVEELGGHMPRTAETLQQLLPGVGRYTAGAIASIAFGQATGVVDGNVARVLCRVRAIGADPSSTLVSQQLWGLAQQLVDPARPGDFNQAAMELGATVCTPQRPLCSQCPVESLCRARQRVEQEQLLASGSLSGSPDVEECAPNTGQCHLCLPPSEPWDQTLGVVNFPRKASRKPPREESSATCVLEQPGALGAQILLVQRPNSGLLAGLWEFPSVTWEPSEQLQRKALLQELQRWAGPLPATHLRHLGEVVHTFSHIKLTYQVYGLALEGQTPVTTVPPGARWLTQEEFHTAAVSTAMKKVFRVYQGQQPGTCMGSKRSQVSSPCSRKKPRMGQQVLDNFFRSHISTDAHSLNSAAQ

Variants of: B1
Assay: 8OG:A repair function score (normalized; synonymous = 0, nonsense = -1) (normalized log-likelihood score); higher = more repair activity (WT-like)
Details: with 8OG:A DNA repair reporter (GFP) in HEK-293 MUTYH KO cells
Experimental: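 Saturation mutagenesis (NNN codon scan) of the MUTYH cDNA (521-aa nuclear isoform NM_001048174.1 / NP_001041639), stably expressed under doxycycline induction in HEK-293 MUTYH knockout cells. Cells were co-transfected with an 8OG:A-bearing GFP repair reporter plus mCherry and sorted 72 h later into GFP+ and GFP− bins, three replicates per tile. The Rosace log2 enrichment (GFP+ vs GFP−) was converted per tile to a normalized function score with synonymous variants centered at 0 and nonsense variants (codons 1-471) at -1; low-abundance variants were removed.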

Variant	8OG:A repair function score
R69D	-1.4
R69I	-3.35
R69G	-0.281
R69S	-0.0909
R69V	-0.212
R69Y	-0.421
R69M	-3.11
R69W	-3.43
R69C	-0.33
R69L	-1.24
R69T	-0.172
R69A	-1.46
R69E	-3.19
R69N	-1.56
R69Q	-0.519
R69K	-0.298
R69F	-1.53
R69P	-1.42
R69H	-1.89
V53Y	-0.0142
S55M	-0.0231
S55V	0.00566
S55E	-0.00704
S55K	0.000876

Variant	8OG:A repair function score
S55C	-0.043
S55H	-0.00673
S55Y	0.000496
S55Q	0.00445
S55G	0.00135
S55N	0.00188
S55A	0.00283
S55F	-0.000223
S55W	-0.0142
S55I	-0.0166
S55P	-0.274
S55R	-0.0153
S55L	-0.149
S55D	0.00222
S55T	0.00523
A63H	-0.0822
A63N	-0.101
A63C	-0.0141
A63L	-0.00968
A63F	-0.142
A63Q	-0.105
A63G	-0.0575
A63D	0.00576
A63K	-0.00172

Variant	8OG:A repair function score
A63P	-0.0204
A63R	0.00494
A63S	0.00279
A63I	-0.0351
A63V	-0.0122
A63E	-0.00911
A63Y	-0.056
A63W	-0.00488
A63T	0.00284
A63M	-0.0357
S71N	-0.00566
S71E	-0.0479
S71G	-0.000985
S71D	-0.0972
S71T	-0.0759
S71I	-0.125
S71V	0.00531
S71F	0.00684
S71M	0.00635
S71Q	-0.0211
S71H	-0.0346
S71R	-0.0148
S71A	-0.0236
S71C	-0.00534

Variant	8OG:A repair function score
S71L	-0.00671
S71K	-0.0254
S71P	-0.0398
L58E	0.0056
L58F	0.00426
L58A	0.00209
L58P	-0.622
L58S	-0.0155
L58K	-0.021
L58I	-0.00475
L58G	0.00575
L58C	-0.0122
L58M	-0.0211
L58Y	-0.0187
L58H	0.00605
L58N	0.00327
L58T	-0.0284
L58Q	-0.00261
L58D	-0.00786
L58V	-0.00997
L58W	0.00529
L58R	0.00693
T66V	0.00408
T66K	-0.0706

Variant	8OG:A repair function score
T66P	-0.115
T66E	0.00467
T66M	-0.0066
T66S	-0.0428
T66L	-0.00253
T66D	0.00573
T66H	-0.091
T66Q	0.00332
T66N	-0.0376
T66R	-0.0902
T66G	-0.0192
T66A	-0.0148
T66F	-0.00932
T66I	-0.0285
T66C	0.00591
T66Y	-0.00942
V62Q	-0.0156
V62E	-0.456
V62I	-0.00659
V62S	0.00493
V62A	-0.00201
V62R	-0.00306
V62K	0.00655
V62Y	0.00694

Variant	8OG:A repair function score
V62P	0.00101
V62F	0.00406
V62W	-0.0135
V62L	0.00583
V62N	0.00416
V62H	-0.0066
V62C	-0.00556
V62T	0.00595
V62D	-0.0781
V62M	-0.00891
V62G	0.0052
R60F	-0.0889
R60A	-0.0135
R60N	0.00565
R60C	-0.081
R60Q	-0.692
R60E	-0.127
R60D	-0.0771
R60Y	-0.014
R60M	0.00468
R60I	-0.0738
R60L	0.00645
R60W	-0.564
R60V	0.00595

Variant	8OG:A repair function score
R60K	-0.0179
R60G	-0.0378
R60T	0.00688
R60S	0.00106
R60P	-0.0757
R60H	-0.196
E64H	-0.0871
E64W	-0.219
E64A	-0.0113
E64V	-0.0293
E64F	-1.97
E64N	-0.0585
E64S	-0.158
E64D	-0.0139
E64R	-0.103
E64K	-0.115
E64I	-0.193
E64Q	0.00334
E64Y	-0.98
E64C	-0.0897
E64T	0.00694
E64G	-0.0592
E64P	-0.284
E64L	-0.0405

Variant	8OG:A repair function score
Y56W	0.00662
Y56H	-0.00595
Y56T	-0.011
Y56K	-0.0455
Y56I	-0.000994
Y56F	0.0047
Y56P	-0.0566
Y56L	0.00637
Y56E	-0.0123
Y56D	-0.0985
Y56Q	-0.0234
Y56V	-0.015
Y56G	-0.0482
Y56C	-0.0129
Y56N	-0.0497
Y56M	0.00205
Y56A	-0.0245
Y56R	-0.0483
Y56S	-0.0461
G70T	-0.693
G70E	-0.0876
G70L	-0.0189
G70D	-0.369
G70V	0.0055

Variant	8OG:A repair function score
G70I	-0.00774
G70Q	-0.528
G70P	-0.126
G70S	-0.0056
G70R	0.00416
G70M	-0.00743
G70C	0.00567
G70F	-0.115
G70A	-0.0222
S54E	0.00656
S54I	-0.00479
S54P	0.00682
S54D	-0.029
S54G	0.00441
S54R	-0.0174
S54H	0.0058
S54F	-0.0664
S54L	0.00619
S54Y	0.00243
S54Q	0.00389
S54M	-0.0179
S54N	-0.00348
S54T	-0.0217
S54K	-0.0583

Variant	8OG:A repair function score
S54A	0.00533
S54W	-0.423
S54V	-0.0294
S54C	0.00525
F68N	-1.12
F68H	-1.1
F68L	-0.141
F68R	-1.29
F68I	-0.126
F68A	-0.234
F68Y	-0.0444
F68D	-1.87
F68Q	-0.906
F68T	-0.393
F68C	-0.545
F68W	-0.369
F68G	-1.41
F68K	-0.962
F68E	-1.5
F68P	-1.6
F68M	-0.0967
F68V	-0.0136
F68S	-1.34
A67W	-0.0846

Variant	8OG:A repair function score
A67D	0.00532
A67P	-0.143
A67Q	-0.481
A67R	0.00599
A67C	0.00689
A67Y	0.00691
A67M	-0.118
A67N	-0.0206
A67E	-0.0141
A67K	-0.0225
A67H	-0.0348
A67S	0.00133
A67I	-0.0242
A67V	-0.000602
A67T	0.00198
A67F	-0.0807
A67G	-0.0739
A67L	-0.0838
F59A	-0.359
F59G	-0.925
F59I	-0.137
F59D	-0.583
F59N	-0.954
F59W	-0.25

Variant	8OG:A repair function score
F59Q	-0.967
F59K	-1.43
F59Y	-0.161
F59S	-0.561
F59M	-0.121
F59P	-0.371
F59H	-0.439
F59V	-0.24
F59R	-0.753
F59T	-0.579
F59C	-0.367
F59L	-0.095
F59E	-0.768
V65M	-0.139
V65Q	-0.0644
V65K	0.00609
V65F	-0.0274
V65N	-0.208
V65C	-0.00739
V65G	-0.206
V65T	-0.00404
V65R	-0.0229
V65Y	-0.0274
V65L	-0.0109

Variant	8OG:A repair function score
V65S	-0.0751
V65P	-0.196
V65A	-0.138
V65I	-0.000598
V65W	-0.114
V65E	-0.196
V65H	-0.0853
V65D	-0.226
H57S	-0.711
H57Q	-0.657
H57T	-0.765
H57L	-0.734
H57V	-0.613
H57W	-1.09
H57D	-0.824
H57K	-0.664
H57P	-0.793
H57A	-0.797
H57E	-0.74
H57I	-0.613
H57R	-0.473
H57C	-0.642
H57N	-0.729
H57M	-1.63

Variant	8OG:A repair function score
H57G	-0.607
H57F	-0.751
H57Y	-0.569
D61W	-0.127
D61S	-0.013
D61H	-0.208
D61V	-0.137
D61Y	-0.0853
D61A	-0.0921
D61T	0.00691
D61P	-0.00103
D61L	0.00218
D61G	0.00587
D61F	-0.794
D61N	-0.0108
D61R	-0.037
D61I	-0.0219
D61E	-0.0493
D61M	-0.00523
D61K	0.00675
D61Q	-0.0778
D61C	-0.0189
